Experimental data from paper PMC6886185, “eIF4A2 drives repression of translation at initiation by Ccr4-Not through purine-rich motifs in the 5′UTR”.

Experiments:
[1] = molecular target: eIF4A1 (UniProt P60842 1-406); assay: fluorescence anisotropy; AMP-PNP; 20 mM Hepes/KOH pH 7.5, 100 (mM) KCl, 1 mM MgCl2, 1 mM AMP-PNP, 1 mM TCEP, 0.1% DMSO, +/-50 uM silvestrol (10 uM in Fig 4a legend), 60 min, 25 C; numeric Kd of; details: protein: recombinant; tags: SUMO tag cleaved; label: FAM; blunt
[2] = molecular target: T1, eIF4A2 (UniProt Q14240 1-407); assay: as above; details: protein: recombinant; tags: SUMO tag cleaved; label: FAM; blunt
[3] = molecular target: T1, eIF4A2; assay: EMSA; AMP-PNP; bound even under high molar excess of (CAA)6CA; 20 mM Hepes/KOH pH 7.5, 100 (mM) KCl, 1 mM MgCl2, 1 mM AMP-PNP, 1 mM TCEP, 0.1% DMSO, +/-50 uM silvestrol (10 uM in Fig 4a legend), 60 min, 25 C; numeric Kd of; details: protein: recombinant; tags: SUMO tag cleaved; label: Dy780; single strand
[4] = molecular target: T1, eIF4A2; assay: competition; 20-fold excess; readily displaces pre-bound FAM-(CAA)6CA; 20 mM Hepes/KOH pH 7.5, 100 (mM) KCl, 1 mM MgCl2, 1 mM AMP-PNP, 1 mM TCEP, 0.1% DMSO, +/-50 uM silvestrol (10 uM in Fig 4a legend), 60 min, 25 C; numeric Kd of; details: protein: recombinant; tags: SUMO tag cleaved; label: none; single strand
[5] = molecular target: T1, eIF4A2; assay: fluorescence anisotropy; 1 mM AMP-PNP, 1 mM Mg2+; 20 mM Hepes/KOH pH 7.5, 100 (mM) KCl, 1 mM MgCl2, 1 mM AMP-PNP, 1 mM TCEP, 0.1% DMSO, +/-50 uM silvestrol (10 uM in Fig 4a legend), 60 min, 25 C; numeric Kd of; details: protein: recombinant; tags: SUMO tag cleaved; label: 5' FAM; single strand, unstructured

T1 sequence (Q14240 whole entry): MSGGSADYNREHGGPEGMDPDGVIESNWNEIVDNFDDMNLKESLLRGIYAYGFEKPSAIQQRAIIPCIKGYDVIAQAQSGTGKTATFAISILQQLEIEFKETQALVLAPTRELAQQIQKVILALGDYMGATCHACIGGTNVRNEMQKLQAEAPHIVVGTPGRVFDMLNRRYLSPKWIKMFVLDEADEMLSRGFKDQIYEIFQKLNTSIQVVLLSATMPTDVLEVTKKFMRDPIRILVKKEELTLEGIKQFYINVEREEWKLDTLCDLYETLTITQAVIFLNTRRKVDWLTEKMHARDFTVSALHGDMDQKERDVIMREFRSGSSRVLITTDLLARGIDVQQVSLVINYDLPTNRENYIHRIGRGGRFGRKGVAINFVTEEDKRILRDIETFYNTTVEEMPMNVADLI
Chain of eIF4A1 (P60842 whole entry): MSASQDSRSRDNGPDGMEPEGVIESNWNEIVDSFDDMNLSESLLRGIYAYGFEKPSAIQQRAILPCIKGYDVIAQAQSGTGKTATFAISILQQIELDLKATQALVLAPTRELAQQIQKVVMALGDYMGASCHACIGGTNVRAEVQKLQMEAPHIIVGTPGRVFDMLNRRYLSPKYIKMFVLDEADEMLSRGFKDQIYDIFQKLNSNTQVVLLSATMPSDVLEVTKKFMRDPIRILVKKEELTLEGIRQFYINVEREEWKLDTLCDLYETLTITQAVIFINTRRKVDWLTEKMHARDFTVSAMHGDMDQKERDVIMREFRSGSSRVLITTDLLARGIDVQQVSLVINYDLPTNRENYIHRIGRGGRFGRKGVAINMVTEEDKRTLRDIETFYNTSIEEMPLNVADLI

B1: (AG)10:(CU)10 dsRNA (dsRNA)
RNA 1: AGAGAGAGAGAGAGAGAGAG
RNA 2: CUCUCUCUCUCUCUCUCUCU
**Q.** Does B1 bind [1]?
**A.** Result: no binding

**Q.** Does B1 bind [2]?
**A.** Result: no binding

B2: Dy780-(AG)10 ssRNA (ssRNA)
RNA: AGAGAGAGAGAGAGAGAGAG
**Q.** Does B2 bind [3]?
**A.** Result: binds

B3: (AG)10 unlabelled competitor (ssRNA)
RNA: AGAGAGAGAGAGAGAGAGAG
**Q.** Does B3 bind [4]?
**A.** Result: binds

B4: (AG)10 ssRNA (ssRNA)
RNA: AGAGAGAGAGAGAGAGAGAG
**Q.** Does B4 bind [5]?
**A.** Result: binds
